Source: the RNAGym collection of RNA variant scans (doi:10.1073/pnas.2313332121)
This sample holds only a part of the variants without activity.

B1: TPR 5TU (parent)
chain: GGAUCUUCUCGAUCUAACAAAAAAGACAAAUCUGCCACAAAGCUUGAGAGCAUCUUCGGAUGCAGAGGCGGCAGCCUUCGGUGGCGCGAUAGCGCCAACGUUCUCAACUAUGACACGCAAAACGCGUGCUCCGUUGAAUGGAGUUUAUCAUG

Variants of: B1
Assay: polymerase ribozyme fitness, log enrichment relative to wild type (log ratio); higher = more active; in vitro selection for triplet polymerase activity
Summary of the method: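 Genotype fitness is the logarithm of its enrichment divided by wild-type enrichment, using inverse-variance-weighted averages of replicates. That logarithm is base 2. Enrichment was measured by Illumina sequencing of input and output libraries from one triplicate in vitro selection round, with frozen incubation at −7 °C, on PCR-built, transcribed mutant libraries of each subunit of a heterodimeric triplet polymerase ribozyme, retaining genotypes with ≥10 input reads and ≥1 read per output.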

Polymerase ribozyme fitness (log ratio), ≤ -4.2:
GGAUCUUCUCGAUGUAGCAAAAAAGAUAAAUCUGCCACAAAGCUUGAGAGCAUCUUCGGAUGCAGAGGCGGCAGCCUUCGGUGGCGCGAUAGCGCGAACGUUCUCAACUAUGACACGCAAAGCGCGUGCUCCGUUGAAUGCAGUUUAUCAUG [C14G A17G C27U C96G A122G G141C]
GGAUCUUCUCGAUGUAACAAUAAAGACAAAUCUGCCACAAAGCUUGAGAGCAUCUUCGCAUGCAGAGGCGGCAGCCUUCGGUGGCGCGAUAGCACCAACGGUCUCAACUAUGCCACGCAAAACGCGUGCUCCGUUGAAUGGAGUUUAUCAUG [C14G A21U G59C G94A U101G A113C]
GGAUCUUCUCGAUGUGACAAACAAGACAAAUCUGCCACAAAGCUUGAGAGCAUCUUCGGUUGCAGAGGCGGCAGCCUUCGGUGGCGUGAUAGUGCCAACGUUCUCAACUAUGACACGCAACACGCGUGCUCCGUUGAAUGGAGUUUAUCAUG [C14G A16G A22C A60U C87U C93U A121C]
GGAUCUUCUCGAUGUAACAAUAAAGACAAAUCUGCCACAAAGCUUGAGAGCAUCUUCGGUUGCAGAGGCGGCAGACGUCGGUGGCGCGUUAGCGACAACGUUCUCAACUAUGACACGCAAAACGCGUGCUCCGUUGAAUGGAGUUUAUCAUG [C14G A21U A60U C75A U77G A89U C95A]
GGAUCUUCUCGAUGUAACAACAAAGACAAAUCUGCCACAAAGCUUGAGAGCAUAUUCGGAUGCAGAAGCGGCAGCCUUCGGUGGCGCGAUAGCUCCAACGUUCUCAACUAUGACACGCAAAAUGCGUGCUCCGUUGAAUGGAGUUUAUCAUG [C14G A21C C54A G67A G94U C123U]
GGAUCUUCUCGAUGUAUCAAAAAAGACAAAUCUGCCUCAAAGCUUGAGAGCGUCUUUGGAUGCAGAGGCGGCAGCCUUCGGUGGCGCGAUUGCGCCAACGUUCUCAACUAUGACACGCAAAACGCGAGCUCCGAUGAAUGGAGUUUAUCUUG [C14G A17U A37U A52G C57U A91U U127A U134A A150U]
GGAUCUUCUCGAUGUAACUAAAAAGACAAAUCUGCCACAAAGCUUGAGAGCAUCUUCGGAUGCAGAGGCGGCAGCCUUCGGUGGCGGGAUAGCGCCAACGUUCUCAACUAUGACACGCAAAACGCGUGCUCCGUUGAAUGGAGUAUAUCAUG [C14G A19U C87G U145A]
GGAUCUUCUCGAUGUAACAAUAAAGACAAAUCUGCCACAAAGCUUGAGAGCGUCUUCGGAUGCAGAGGCGGCAGCCUUCGGUGGAGCGAUAGCGCCAACGUUCUCAACUAUGACACGGAAAACGCGUACUCCGUUGAAUGCAGUUUAUCAUG [C14G A21U A52G C85A C118G G128A G141C]
GGAUCUUCUCGAUGUAACAAUAAAGACAAUCCUGCCACAAAGCUUGAGAGCAUCUUCGGAUGCAGAGGCGGCAGCCUUCGGUGGCGCGAUAGCGCCAACGUUCUCAACUAUGACACGCAAAACGCGUGCUCCGUUGAAUGGAGUUUAUCAUG [C14G A21U A30U U31C]
GGAUCUUCUCGAUGUAGCAAAAAAGACAAAUUUGCCACAAAGCUUGAGAGCAUCUUCGGAUGCAGAGGCGGCAGCCUUCGAUCGCGCGAUAGCGCCAACGUUCUCAACUAUGACACGCAAAACGCGUGCUCCGUUGAAUGGAGUUUAUCAUG [C14G A17G C32U G81A G83C]
GGAUCUUCUCGAUGUAACUAAAAAGACAAAUCUUCCACAAAGCUUGAGAGCAUCUUCGGAUGCAGAGGCGGCAGCCUUCGGUGGCGGGAUAGCGCCAACAUUCUCAACUAUGACACGCAAAACGCGUGCUCCGUUGAAUGGCGUUUAUCAUG [C14G A19U G34U C87G G100A A142C]
GGAUCUUCUCGAUGUAACAUAAAAGACAAAUCUGCCACAAAGCUUGAGAACAUCUACGGAUGCAUAGGCGGCAGCCUUCGGUGGCGCGAUAGAGCCAACGUUCUCAACUAUGACACGCAAAACGCGUGCUACGUUGAAUGGAGUUUAUCAUG [C14G A20U G50A U56A G65U C93A C131A]
GGAUCUUCUCGAUGUAACGAAAAAGACAAAUCUGCCACAAAGCUUAAGAGCAUCUUCGGAUGCAGAGGCGGGAGCCUUCGGUGUCGCGAUAGCGCCAACGUUCUCAACUAUGACACGCAAAACGCGUGCUCCGUUGAAUGGAGUUUAUCAUG [C14G A19G G46A C72G G84U]
GGAUCUUCUCGAUGUAACAGAAAAGACAAAUCUGCCACAAAGCUUGAGAGCAUCUUCGGAUGCAGAGGCGGCAGACUUCGGUGGCGCGAUAGCGCGAACGUUCUCAACUAUGACACGCAAAACGCGUGCUCCGUUGAAUGCAGUUUAUCAUG [C14G A20G C75A C96G G141C]
GGAUCUUCUCGAUGUAACCAAAAAGACAAAUCUGCCACAAAGCUUGAGAGCAUCUUCGGAUGCAGAGGCGGCAGUCUUCGGCGGCGCGAUAGUGCCUACGUUCUGAACUAUGACACGCAAAACGCGUGCUCCGUUGAAUGGAGUUUAUCAUG [C14G A19C C75U U82C C93U A97U C105G]
GGAUCUUCUCGAUGUAACAGAAAUGACAAAUCUGCCACAAAGCUUGAGAGCAUCUUCGGAUGCAGAGGCGGGAGCCUUCGGGGGCGCGAUAGCGCCGACGCUGUCAACUAUGACACGCAAAACGCGUGCUCCGUUAAAUGGAGUUUAUCAUG [C14G A20G A24U C72G U82G A97G U101C C103G G136A]

Polymerase ribozyme fitness (log ratio), -3.74:
GGAUCUUCUCGAUGUAACUAAAAAGACAAAUCUGCCACAAAGCUUGAGAGCAUCUUCGCAUGCAGAGGCGGCAGCCUUCGUUGGCGCGAUAGCGUCAACGUUCUCAACUAUGACACGCAAAACGCGUGCUCCGUUGAAUGAAGUUUAUCAUG [C14G A19U G59C G81U C95U G141A]

Polymerase ribozyme fitness (log ratio), -3.92:
GGAUCUUCUCGAUGUAACAUAAAAGACAAAUCUGCCACAAAGCUUGAGAGCAUCUUCGGAUGCAGAGGCGGCAGCAUUCGGUGGCGCGAUAGCGCCAACGUUCUCAACUAUGACACGCAAAACGCGUGCUCCGUUGAAUGGAGUUUAUCAUG [C14G A20U C76A]

Polymerase ribozyme fitness (log ratio), -1.66:
GGAUCUUCUCGAUGUAACCAAAAAGACAAAUCUGCCACAAAGCUUGAGAGCAUCUUCGGAUGCAGAGGCGGCAGCCUUCGGUGGCGCGAUAGCGCCAACGUUCUCAACUAUGACACGCAAAACGCGUGCUCCGUUGAAUGGAGUUUAUCAUG [C14G A19C]
